Source: patent publication US20170259217A1 (GOVERNORS OF THE UNIVERSITY OF ALBERTA, published 2017)
Non-standard residues stand in square brackets, D forms with d. amino hexenoic acid = amino hexenoic acid, a vinyl (alkene)-bearing residue; Gly(octyl) = CCCCCCCC[C@H](N)C(=O)O; NMeL = CN[C@@H](CC(C)C)C(=O)O

Target: T1, OmpG, bacterial porin (Escherichia coli K12) (Escherichia coli K12, UniProt P76045 22-301, limits assumed)
T1 sequence (looked up): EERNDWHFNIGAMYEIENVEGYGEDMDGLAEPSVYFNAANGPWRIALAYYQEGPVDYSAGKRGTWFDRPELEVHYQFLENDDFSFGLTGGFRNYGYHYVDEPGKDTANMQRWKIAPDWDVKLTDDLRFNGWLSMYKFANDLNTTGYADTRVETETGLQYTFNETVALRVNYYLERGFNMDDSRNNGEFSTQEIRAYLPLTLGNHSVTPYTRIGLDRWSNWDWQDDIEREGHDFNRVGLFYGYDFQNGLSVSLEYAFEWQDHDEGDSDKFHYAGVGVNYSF
Assay: circular dichroism of peptide-stabilized protein

B1: vinyl (alkene mid-) functionalized β-sheet peptide, structure (8): acetyl-(octyl)Gly-Ser-Leu-Ser-amino hexenoic acid-Leu-Asp-(octyl)Gly-Asp-Gly-Leu-NH2 (peptide)
peptide: Ac-[Gly(octyl)]SLS[amino hexenoic acid][NMeL]D[Gly(octyl)]DGL-NH2
notes: Synthetic 11-residue peptide; also called Vinyl-BP1
  binding result: binds
